{"source": "patent US20090075291A1", "about": "“PEPTIDE-BASED REGULATION OF GAP JUNCTIONS” (The Research Foundation of State University of New York, priority 2006, published 2009)", "key": {"Cx43CT [1]": {"biological_target": "T1, Cx43CT (Rattus norvegicus, UniProt P08050)", "T1 construct": "GST (N, cleaved yes); made in house; host or cells: E. coli BL-21", "T1 sequence (P08050 255-382)": "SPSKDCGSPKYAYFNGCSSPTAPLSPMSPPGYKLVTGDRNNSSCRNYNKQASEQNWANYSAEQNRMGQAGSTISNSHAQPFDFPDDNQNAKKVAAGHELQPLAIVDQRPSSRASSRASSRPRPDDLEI", "test": "NMR 15N-HSQC resonance shifts of 15N-Cx43CT in presence of peptide", "format": "binding", "conditions": "PBS pH 5.8, peptide to Cx43CT about 2.4 mM to 0.8 mM (3:1)", "description": "All NMR data were acquired on a Varian INOVA 600-MHz NMR spectrometer using a cryoprobe (MacUra & Ernst, “Elucidation of Cross Relaxation in Liquids by Two-dimensional NMR Spectroscopy,” Mol. Phys. 41:95-117 (1980), which is hereby incorporated by reference in its entirety); the sample temperature was maintained at 7° C. Gradient-enhanced two-dimensional ^1H-^15N HSQC experiments (Kay et al., “Pure Absorption Gradient Enhanced Heteronuclear Single Quantum Correlation Spectroscopy with Improved Sensitivity,” J. Am. Chem. Soc. 114:10663-10665 (1992), which is hereby incorporated by reference in its entirety) were used to observe all backbone amide resonances in ^15N-labeled Cx43CT. Data were acquired with 1024 complex points in t2 and 128 complex points in t1. Sweep widths were 10,000 Hz in the proton dimension and 2,500 Hz in the nitrogen dimension. The concentration of RXP peptide to Cx43CT was approximately 2.4 mM to 0.8 mM, respectively (3:1 ratio). All NMR data were processed using NMRPipe (Delaglio et al., “NMRPipe: A Multidimensional Spectral Processing System Based on UNIX Pipes,” J. Biomol. NMR 6(3):277-293 (1995), which is hereby incorporated by reference in its entirety) and analyzed using NMRView (Sorgen, “How to Solve a Protein Structure by Nuclear Magnetic Resonance The Connexin43 Carboxyl Terminal Domain,” in PRACTICAL METHODS IN CARDIOVASCULAR RESEARCH 948-958 (Stefan Dhein, Friedrich Wilhelm Mohr & Mario Delmar eds., 2005), which is hereby incorporated by reference in its entirety).\nPeptides RXP1, RXP4 and RXP-E were tested for their ability to modify the structure of Cx43CT. The peptides were diluted in PBS (pH 5.8) containing ^15N-Cx43CT, and ^15N-HSQC spectra were acquired. Results for RXP4 and RXP-E are shown in FIGS. 4A (RXP4) and 4B (RXP-E). The specific resonance peaks that correspond to each amino acid in the Cx43CT sequence have been assigned (Sorgen et al., “Sequence-specific Resonance Assignment of the Carboxyl Terminal Domain of Connexin43,” J. Biomol. NMR 23(3):245-246 (2002), which is hereby incorporated by reference in its entirety). […]"}, "Cx43CT [2]": {"biological_target": "T1, Cx43CT", "test": "Surface Plasmon Resonance (SPR) binding of synthetic peptides to immobilised recombinant Cx43CT", "conditions": "Cx43CT bound to carboxymethyl dextran matrix", "source_text": "Recombinant Cx43CT was produced as described in Duffy et al., “pH-Dependent Intramolecular Binding and Structure Involving Cx43 Cytoplasmic Domains,” J. Biol. Chem. 277(39):36706-36714 (2002), which is hereby incorporated by reference in its entirety. Briefly, cDNA derived from rat Cx43 was inserted into pGEX-6P-2 (Amersham) and expressed in E. coli (BL-21). The resultant GST-fusion protein was cleaved from the GST PreScission Protease® (Amersham Biosciences). The recombinant product after cleavage contained the sequence 255-382 of rCx43 preceded by four additional amino acids (GPLG). Protein concentration was measured using the Bio-Rad DC Protein Assay. Protein purity was assessed by SDS-PAGE.\nRecombinant Cx43CT was covalently bound to a carboxylmethyl dextran matrix (Salamon et al., “Surface Plasmon Resonance Spectroscopy as a Tool for Investigating the Biochemical and Biophysical Properties of Membrane Protein Systems. II: Applications to Biological Systems,” Biochim. Biophys. Acta 1331(2):131-152 (1997), which is hereby incorporated by reference in its entirety). Specific peptides were presented and, when feasible, dissociation constants (KD) were calculated from the time course of binding and unbinding of the ligand, using a 1:1 (Langmuir) association and dissociation kinetic model (Biacore software package). In both phases (association and dissociation), the first 5-8 seconds of recording were not included in the fit, to avoid artifacts resulting from peptide distribution within the flow cells (Lang et al., “Surface Plasmon Resonance as a Method to Study the Kinetics and Amplitude of Protein-protein Binding,” in PRACTICAL METHODS IN CARDIOVASCULAR RESEARCH 936-947 (Stefan Dhein, Friedrich Wilhelm Mohr & Mario Delmar eds., 2005), which is hereby incorporated by reference in its entirety).\nPhage display allows for the rapid screening of thousands of peptides, but the characteristics of binding cannot be properly defined. Furthermore, the peptides are part of a capsid protein, which may affect the ability of the peptide to properly interact with the target protein. Therefore, some of the peptides identified by the phage screening were selected to, using SPR, further characterize their ability to bind Cx43CT. Recombinant Cx43CT was covalently bound to a carboxymethyl dextran matrix and synthetic peptides presented for binding. A total of six 12-mer peptides from the non-biased screening (peptides labeled RXP1 to RXP6 in Table 1) and 5 peptides from the biased screening (labeled RXP-A to RXP-E in Table 3) were tested. […] Peptide RXP4 (SEQ ID NO:15) caused the largest deflection in SPR signal. RXP4 (250 μM) was added at time “zero.” Washout was initiated after two minutes of exposure. […] Higher concentrations of the peptide were tested but an asymptotic maximum response could not be detected. In addition, dissociation rates were too fast to reliably use them to calculate the kinetics of binding.\nA different result emerged from the testing of the doublets. […] The transitions were well-fit by exponential functions and the rates of association and dissociation were used as described in Example 4 to estimate the kinetic parameters. A full range of concentrations was tested in three separate occasions and at two different pHs of the solvent (6.5 and 7.4). […] Adhes. 8(4-6):219-223 (2001), which is hereby incorporated by reference in its entirety), and that measured for the binding of Aquaporin-0 to Cx45.6 (Yin et al., “The Development-associated Cleavage of Lens Connexin 45.6 by Caspase-3-like Protease is Regulated by Casein Kinase II-mediated Phosphorylation,” J. Biol. Chem. 276(37):34567-34572 (2001), which is hereby incorporated by reference in its entirety).\nThe peptides were tested for binding to the carboxyl terminal domain of Cx43 using Surface Plasmon Resonance (“SPR”). […]"}, "[3]": {"test_system": "junctional conductance (Gj) of cell pairs", "test": "Heptanol-induced uncoupling of cell pairs, junctional conductance time course", "format": "cell-based", "conditions": "compared with cell pairs without peptide", "description": "Cells were treated with heptanol to reduce coupling and with NL.RXPE."}, "cardiac Cx43": {"biological_target": "T2, cardiac Cx43 (Rattus norvegicus, UniProt P08050)", "T2 construct": "from tissue; host or cells: rat heart lysate", "T2 sequence (P08050 whole entry, the tested form may be a part)": "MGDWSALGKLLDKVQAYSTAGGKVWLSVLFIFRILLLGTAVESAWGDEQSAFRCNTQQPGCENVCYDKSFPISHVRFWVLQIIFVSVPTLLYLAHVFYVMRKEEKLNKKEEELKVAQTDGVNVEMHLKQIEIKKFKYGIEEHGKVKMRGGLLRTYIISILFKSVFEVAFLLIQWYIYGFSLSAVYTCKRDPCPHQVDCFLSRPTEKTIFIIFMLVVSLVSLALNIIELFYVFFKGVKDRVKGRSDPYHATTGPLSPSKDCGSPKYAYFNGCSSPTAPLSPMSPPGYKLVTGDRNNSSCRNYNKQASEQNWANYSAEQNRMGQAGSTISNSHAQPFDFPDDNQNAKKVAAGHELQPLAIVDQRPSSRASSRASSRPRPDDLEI", "test": "GST pulldown of Cx43 from rat heart lysate, western blot", "format": "binding", "conditions": "GST fusion on glutathione beads, western blot for Cx43", "source_text": "cDNA coding for […] (SEQ ID NO:11) (“NL.RXPE”) was cloned in-frame with the cDNA for glutathione S-transferase (“GST”). The resulting fusion protein, GST-NL.RXPE was produced in bacteria, and purified by conventional methods. GST-NL.RXPE was bound to glutathione beads and exposed to a rat heart lysate. After washing of the supernatant, the pellets were heated to separate the proteins from the beads. Two additional proteins were produced in parallel, and used as control: GST alone (not fused to any peptide) and GST fused to RXPE. After exposure to heart lysate, the resulting complexes that were “fished out” by the bait proteins were run on SDS-PAGE, transferred to a nitrocellulose membrane, and probed with an antibody for Cx43. […] It is expected that other peptides of formula A-An interact with Cx43, and may be used in the methods of the present invention."}, "Cx43CT [4]": {"biological_target": "T1, Cx43CT", "test": "Non-biased 12-mer phage display screening against Cx43CT", "format": "binding", "conditions": "156 phage plaques sequenced after three rounds; pH 6.5", "description": "A “library” of bacteriophage, displaying ˜[…] of 2.7×10^9 random 12-mer peptides (Ph.D.-12™ Phage display peptide library kit; New England BioLabs Inc.) was utilized. Wells in 24-well plates were coated with 15 μg of recombinant CT and blocked with 5 mg/ml BSA. After removing the unbound viruses by washing with Tris buffered saline containing 0.5% tween-20 (TBS-T), low affinity binders were eluted with a solution of TBS-containing Cx43CT at a concentration of 100 μg/ml. High affinity binders were recovered by overlaying the well with a culture of E. coli, to allow the tightly bound phage to infect the bacteria. This culture was amplified and the virus was precipitated with PEG. The amplified product was used for the subsequent round of panning. All steps were conducted at pH 6.5 unless otherwise indicated.\nAfter three rounds of selection and amplification, the phage recovered from the last round of binding were grown on a lawn of E. coli for plaque purification. Each plaque, representing a single clone, was picked and amplified. The phage were isolated and analyzed by DNA sequencing.\nThe library was presented to Cx43CT. After three rounds of selection and amplification, DNA of 156 phage plaques was purified and sequenced. Of the estimated 2.7×10^9 different sequences in the library, 48 unique sequences were recovered. […]"}}, "data": [{"substance": "R R P P Y R V P R K L F (RRPPYRVPPKLF) [RXP4]", "values": [{"measurement": "Shift of Cx43CT resonance peaks (15N-HSQC)", "setting": "Cx43CT [1]", "result": "strongly affected the resonance peaks of residues R376, D378, and D379"}, {"measurement": "Shift of Cx43CT resonance peaks (15N-HSQC)", "setting": "Cx43CT [1]; listed as RXP-4", "result": "caused a shift in the position of residues 376, 378 and 379, as well as residues 343-346"}, {"measurement": "SPR binding to Cx43CT (in words)", "setting": "Cx43CT [2]", "result": "too weak to allow for proper calculation of kinetic values"}, {"measurement": "SPR binding to Cx43CT (in words)", "setting": "Cx43CT [2]; listed as RXP-4", "result": "weak intermolecular binding"}]}, {"substance": "SDDLRSPQLHNHMVRRKPRNPR (RXP-containing peptide) [NL.RXPE]", "values": [{"measurement": "Rate of heptanol-induced uncoupling (normalized Gj)", "setting": "[3]", "result": "uncoupled at a much slower rate"}, {"measurement": "Recovery of Cx43 with GST-fused peptide as bait", "setting": "cardiac Cx43", "result": "Cx43 was also recovered"}]}, {"substance": "PRPTMGNLPDVL (Peptide sequence from phage library)", "values": [{"measurement": "Number of phage plaques from which the sequence was recovered", "setting": "Cx43CT [4]", "result": 45, "unit": "plaques"}]}, {"substance": "G H L H L R V P T L K M (GHLHLRVPTLKM; RXP-containing peptide) [RXP1]", "values": [{"measurement": "Shift of Cx43CT resonance peaks (15N-HSQC)", "setting": "Cx43CT [1]", "result": "no resonance shifts were observed"}, {"measurement": "SPR binding to Cx43CT (in words)", "setting": "Cx43CT [2]", "result": "detectable, pH-dependent binding"}, {"measurement": "SPR binding to Cx43CT (in words)", "setting": "Cx43CT [2]; listed as RXP-1", "result": "very weak (almost undetectable) interaction"}]}]}
